Test results taken from patent publication US20260001928A1 (CORTERIA PHARMACEUTICALS, priority 2022, published 2026).
*1 amine or outer side, *2 acyl side, *3 side chain or, on linkers, in order; H or OH if unused. Side-chain parts run from the residue outwards. [ ]: non-standard residue; d: D form. The star is where a group is joined. C16 diacid = O=C(O)CCCCCCCCCCCCCCC(=O)*; γGlu = O=C(O)[C@H](CCC(=O)[*:2])N[*:1]; Aib = CC(C)(N)C(=O)O

T1: CRF1R receptor (UniProt P34998 24-415, limits assumed)
T1 sequence (looked up): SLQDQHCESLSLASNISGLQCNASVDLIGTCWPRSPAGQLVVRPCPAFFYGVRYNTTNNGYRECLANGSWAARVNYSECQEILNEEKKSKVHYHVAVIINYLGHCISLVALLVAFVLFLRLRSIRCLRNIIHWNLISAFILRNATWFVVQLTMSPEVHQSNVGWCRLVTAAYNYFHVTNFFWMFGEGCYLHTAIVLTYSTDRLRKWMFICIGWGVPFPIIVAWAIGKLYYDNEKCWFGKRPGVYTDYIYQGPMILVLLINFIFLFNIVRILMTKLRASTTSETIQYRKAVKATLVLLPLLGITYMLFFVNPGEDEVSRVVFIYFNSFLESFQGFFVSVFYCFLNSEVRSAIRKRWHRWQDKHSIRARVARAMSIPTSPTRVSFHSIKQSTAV


Experiments:
[1] = biological target: human corticotropin-releasing factor 2a (CRF2a receptor) (human), Q13324; assay: cell-based or functional assay
Chain of human corticotropin-releasing factor 2a (CRF2a receptor) (human), Q13324 (Q13324 20-411): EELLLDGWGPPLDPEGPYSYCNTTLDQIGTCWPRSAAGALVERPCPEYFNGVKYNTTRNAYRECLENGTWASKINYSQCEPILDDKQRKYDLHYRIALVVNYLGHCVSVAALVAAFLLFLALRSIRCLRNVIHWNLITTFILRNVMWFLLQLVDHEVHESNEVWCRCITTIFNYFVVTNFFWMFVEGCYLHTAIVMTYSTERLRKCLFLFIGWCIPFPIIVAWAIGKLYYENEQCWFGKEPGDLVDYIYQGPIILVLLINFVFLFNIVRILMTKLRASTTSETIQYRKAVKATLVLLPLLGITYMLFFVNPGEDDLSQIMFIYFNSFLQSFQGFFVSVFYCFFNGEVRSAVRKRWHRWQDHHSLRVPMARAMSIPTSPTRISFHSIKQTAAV

CRF1R receptor = biological target: T1, CRF1R receptor; assay: cell-based or functional assay

| EC50 [nM] (cAMP) [1] | Emax (% I) (CRF1R receptor) [%] | Binder |
| --- | --- | --- |
| 0.21 | 12 | Ac-IVLSLD[dV]PIKLK([γGlu-C16 diacid])QILLKQERQKKQREQAEKNEQILEQV-NH2 (SMILES CC[C@H](C)[C@H](NC(C)=O)C(=O)N[C@H](C(=O)N[C@@H](CC(C)C)C(=O)N[C@@H](CO)C(=O)N[C@@H](CC(C)C)C(=O)N[C@@H](CC(=O)O)C(=O)N[C@@H](C(=O)N1CCC[C@H]1C(=O)N[C@H](C(=O)N[C@@H](CCCCN)C(=O)N[C@@H](CC(C)C)C(=O)N[C@@H](CCCCNC(=O)CC[C@H](NC(=O)CCCCCCCCCCCCCCC(=O)O)C(=O)O)C(=O)N[C@@H](CCC(N)=O)C(=O)N[C@H](C(=O)N[C@@H](CC(C)C)C(=O)N[C@@H](CC(C)C)C(=O)N[C@@H](CCCCN)C(=O)N[C@@H](CCC(N)=O)C(=O)N[C@@H](CCC(=O)O)C(=O)N[C@@H](CCCNC(=N)N)C(=O)N[C@@H](CCC(N)=O)C(=O)N[C@@H](CCCCN)C(=O)N[C@@H](CCCCN)C(=O)N[C@@H](CCC(N)=O)C(=O)N[C@@H](CCCNC(=N)N)C(=O)N[C@@H](CCC(=O)O)C(=O)N[C@@H](CCC(N)=O)C(=O)N[C@@H](C)C(=O)N[C@@H](CCC(=O)O)C(=O)N[C@@H](CCCCN)C(=O)N[C@@H](CC(N)=O)C(=O)N[C@@H](CCC(=O)O)C(=O)N[C@@H](CCC(N)=O)C(=O)N[C@H](C(=O)N[C@@H](CC(C)C)C(=O)N[C@@H](CCC(=O)O)C(=O)N[C@@H](CCC(N)=O)C(=O)N[C@H](C(N)=O)C(C)C)[C@@H](C)CC)[C@@H](C)CC)[C@@H](C)CC)C(C)C)C(C)C) [SEQ ID NO 17] |
| 0.34 | 5 | Ac-IVLSLD[dV]PIKLK([γGlu-C16 diacid])KILLKQERQKKQREQAEKN[Aib]QILEQV-NH2 (SMILES CC[C@H](C)[C@H](NC(C)=O)C(=O)N[C@H](C(=O)N[C@@H](CC(C)C)C(=O)N[C@@H](CO)C(=O)N[C@@H](CC(C)C)C(=O)N[C@@H](CC(=O)O)C(=O)N[C@@H](C(=O)N1CCC[C@H]1C(=O)N[C@H](C(=O)N[C@@H](CCCCN)C(=O)N[C@@H](CC(C)C)C(=O)N[C@@H](CCCCNC(=O)CC[C@H](NC(=O)CCCCCCCCCCCCCCC(=O)O)C(=O)O)C(=O)N[C@@H](CCCCN)C(=O)N[C@H](C(=O)N[C@@H](CC(C)C)C(=O)N[C@@H](CC(C)C)C(=O)N[C@@H](CCCCN)C(=O)N[C@@H](CCC(N)=O)C(=O)N[C@@H](CCC(=O)O)C(=O)N[C@@H](CCCNC(=N)N)C(=O)N[C@@H](CCC(N)=O)C(=O)N[C@@H](CCCCN)C(=O)N[C@@H](CCCCN)C(=O)N[C@@H](CCC(N)=O)C(=O)N[C@@H](CCCNC(=N)N)C(=O)N[C@@H](CCC(=O)O)C(=O)N[C@@H](CCC(N)=O)C(=O)N[C@@H](C)C(=O)N[C@@H](CCC(=O)O)C(=O)N[C@@H](CCCCN)C(=O)N[C@@H](CC(N)=O)C(=O)NC(C)(C)C(=O)N[C@@H](CCC(N)=O)C(=O)N[C@H](C(=O)N[C@@H](CC(C)C)C(=O)N[C@@H](CCC(=O)O)C(=O)N[C@@H](CCC(N)=O)C(=O)N[C@H](C(N)=O)C(C)C)[C@@H](C)CC)[C@@H](C)CC)[C@@H](C)CC)C(C)C)C(C)C) [SEQ ID NO 21] |
| 0.3 | 3 | Ac-IVLSLD[dV]PIKLK([γGlu-C16 diacid])KILLEQEKQKKQREQAETNEQILAQV-NH2 (SMILES CC[C@H](C)[C@H](NC(C)=O)C(=O)N[C@H](C(=O)N[C@@H](CC(C)C)C(=O)N[C@@H](CO)C(=O)N[C@@H](CC(C)C)C(=O)N[C@@H](CC(=O)O)C(=O)N[C@@H](C(=O)N1CCC[C@H]1C(=O)N[C@H](C(=O)N[C@@H](CCCCN)C(=O)N[C@@H](CC(C)C)C(=O)N[C@@H](CCCCNC(=O)CC[C@H](NC(=O)CCCCCCCCCCCCCCC(=O)O)C(=O)O)C(=O)N[C@@H](CCCCN)C(=O)N[C@H](C(=O)N[C@@H](CC(C)C)C(=O)N[C@@H](CC(C)C)C(=O)N[C@@H](CCC(=O)O)C(=O)N[C@@H](CCC(N)=O)C(=O)N[C@@H](CCC(=O)O)C(=O)N[C@@H](CCCCN)C(=O)N[C@@H](CCC(N)=O)C(=O)N[C@@H](CCCCN)C(=O)N[C@@H](CCCCN)C(=O)N[C@@H](CCC(N)=O)C(=O)N[C@@H](CCCNC(=N)N)C(=O)N[C@@H](CCC(=O)O)C(=O)N[C@@H](CCC(N)=O)C(=O)N[C@@H](C)C(=O)N[C@@H](CCC(=O)O)C(=O)N[C@H](C(=O)N[C@@H](CC(N)=O)C(=O)N[C@@H](CCC(=O)O)C(=O)N[C@@H](CCC(N)=O)C(=O)N[C@H](C(=O)N[C@@H](CC(C)C)C(=O)N[C@@H](C)C(=O)N[C@@H](CCC(N)=O)C(=O)N[C@H](C(N)=O)C(C)C)[C@@H](C)CC)[C@@H](C)O)[C@@H](C)CC)[C@@H](C)CC)C(C)C)C(C)C) [SEQ ID NO 56] |
| 0.09 | 10 | Ac-IVLSLD[dV]PIKLK([γGlu-C16 diacid])KILLEQEKQKKQREQAETNAQILAQV-NH2 (SMILES CC[C@H](C)[C@H](NC(C)=O)C(=O)N[C@H](C(=O)N[C@@H](CC(C)C)C(=O)N[C@@H](CO)C(=O)N[C@@H](CC(C)C)C(=O)N[C@@H](CC(=O)O)C(=O)N[C@@H](C(=O)N1CCC[C@H]1C(=O)N[C@H](C(=O)N[C@@H](CCCCN)C(=O)N[C@@H](CC(C)C)C(=O)N[C@@H](CCCCNC(=O)CC[C@H](NC(=O)CCCCCCCCCCCCCCC(=O)O)C(=O)O)C(=O)N[C@@H](CCCCN)C(=O)N[C@H](C(=O)N[C@@H](CC(C)C)C(=O)N[C@@H](CC(C)C)C(=O)N[C@@H](CCC(=O)O)C(=O)N[C@@H](CCC(N)=O)C(=O)N[C@@H](CCC(=O)O)C(=O)N[C@@H](CCCCN)C(=O)N[C@@H](CCC(N)=O)C(=O)N[C@@H](CCCCN)C(=O)N[C@@H](CCCCN)C(=O)N[C@@H](CCC(N)=O)C(=O)N[C@@H](CCCNC(=N)N)C(=O)N[C@@H](CCC(=O)O)C(=O)N[C@@H](CCC(N)=O)C(=O)N[C@@H](C)C(=O)N[C@@H](CCC(=O)O)C(=O)N[C@H](C(=O)N[C@@H](CC(N)=O)C(=O)N[C@@H](C)C(=O)N[C@@H](CCC(N)=O)C(=O)N[C@H](C(=O)N[C@@H](CC(C)C)C(=O)N[C@@H](C)C(=O)N[C@@H](CCC(N)=O)C(=O)N[C@H](C(N)=O)C(C)C)[C@@H](C)CC)[C@@H](C)O)[C@@H](C)CC)[C@@H](C)CC)C(C)C)C(C)C) [SEQ ID NO 47] |
